According to paper PMC5555194:

Target: C3d (human), P01024
Assay: SPR; C3d amine-coupled to a different flow cell of the same C1 chip; CFH (from 2.5 to 0.019 uM), or 0.6 uM CFH premixed with 1.2 uM PspCN, flowed over; equilibrium plots
Details: remark: other sources report otherwise

C3d (human), P01024, sequence (P01024 1002-1303): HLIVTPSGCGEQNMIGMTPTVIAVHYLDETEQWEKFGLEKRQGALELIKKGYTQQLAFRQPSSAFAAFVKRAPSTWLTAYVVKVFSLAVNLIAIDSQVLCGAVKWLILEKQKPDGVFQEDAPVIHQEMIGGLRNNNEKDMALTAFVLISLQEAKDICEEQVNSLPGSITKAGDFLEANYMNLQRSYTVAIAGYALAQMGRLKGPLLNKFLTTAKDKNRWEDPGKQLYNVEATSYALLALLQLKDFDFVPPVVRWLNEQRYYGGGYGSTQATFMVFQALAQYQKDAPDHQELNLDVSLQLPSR

B1: V62-CFH (recombinant human complement factor H, variant Val-62, Tyr-402, Glu-936), P08603 19-1231 (natural protein)
chain: EDCNELPPRRNTEILTGSWSDQTYPEGTQAIYKCRPGYRSLGNVIMVCRKGEWVALNPLRKCQKRPCGHPGDTPFGTFTLTGGNVFEYGVKAVYTCNEGYQLLGEINYRECDTDGWTNDIPICEVVKCLPVTAPENGKIVSSAMEPDREYHFGQAVRFVCNSGYKIEGDEEMHCSDDGFWSKEKPKCVEISCKSPDVINGSPISQKIIYKENERFQYKCNMGYEYSERGDAVCTESGWRPLPSCEEKSCDNPYIPNGDYSPLRIKHRTGDEITYQCRNGFYPATRGNTAKCTSTGWIPAPRCTLKPCDYPDIKHGGLYHENMRRPYFPVAVGKYYSYYCDEHFETPSGSYWDHIHCTQDGWSPAVPCLRKCYFPYLENGYNQNYGRKFVQGKSIDVACHPGYALPKAQTTVTCMENGWSPTPRCIRVKTCSKSSIDIENGFISESQYTYALKEKAKYQCKLGYVTADGETSGSITCGKDGWSAQPTCIKSCDIPVFMNARTKNDFTWFKLNDTLDYECHDGYESNTGSTTGSIVCGYNGWSDLPICYERECELPKIDVHLVPDRKKDQYKVGEVLKFSCKPGFTIVGPNSVQCYHFGLSPDLPICKEQVQSCGPPPELLNGNVKEKTKEEYGHSEVVEYYCNPRFLMKGPNKIQCVDGEWTTLPVCIVEESTCGDIPELEHGWAQLSSPPYYYGDSVEFNCSESFTMIGHRSITCIHGVWTQLPQCVAIDKLKKCKSSNLIILEEHLKNKKEFDHNSNIRYRCRGKEGWIHTVCINGRWDPEVNCSMAQIQLCPPPPQIPNSHNMTTTLNYRDGEKVSVLCQENYLIQEGEEITCKDGRWQSIPLCVEKIPCSQPPQIEHGTINSSRSSQESYAHGTKLSYTCEGGFRISEENETTCYMGKWSSPPQCEGLPCKSPPEISHGVVAHMSDSYQYGEEVTYKCFEGFGIDGPAIAKCLGEKWSHPPSCIKTDCLSLPSFENAIPMGEKKDVYKAGEQVTYTCATYYKMDGASNVTCINSRWTGRPTCRDTSCVNPPTVQNAYIVSRQMSKYPSGERVRYQCRSPYEMFGDEEVMCLNGNWTEPPQCKDSTGKCGPPPPIDNGDITSFPLSVYAPASSVEYQCQNLYQLEGNKRITCRNGQWSEPPKCLHPCVISREIMENYNIALRWTAKQKLYSRTGESVEFVCKRGYRLSSRSHTLRTTCWDGKLEYPTCAKR
modifications: here or on the partner: N-glycans trimmed to the first GlcNAc residues (EndoHf)
Kd: 2100 nM
